From US10829756B2, “Discovery of enzymes from the alpha-keto acid decarboxylase family” (Regents of the University of California, priority 2015, dated 2020)
Where “and” joins values, the source holds several entries; their conditions need not be identical. Identical values can stand only once.

Experiments:
[1] = In vitro steady-state kinetics of purified 2-ketoacid decarboxylases (ADH/NADH-coupled), C8 substrate; type: biochemical; details: kcat/KM on C8
Protocol: For the native KIVD and KIVD_VLV mutant, 2 ml overnight cultures of XL1B cells were transformed with pQE9 containing N-terminal his-tagged KIVD enzymes and grown in Terrific Broth (BP biomedical, Cat#3046-042) with 50 μg/mL of carbenicillin. (Fisher scientific, Cat# BP2648-5) For the GEOs, 2 ml overnight cultures of BLR cells were transformed with pet29b+ plasmid containing N-terminal his-tagged GEOs, and grown in Terrific Broth with 50 μg/mL of kanamycin. (Fisher scientific, Cat# BP906-5) These cultures were diluted 1:1000 in 500 mL of Terrific Broth with 1 mM MgSO4, 1% glucose, and 50ug/mL of corresponding antibiotics, then grown at 37° C. for 24 hours. […] Protein concentrations were determined using a Synergy H1 spectrophotometer (Biotek) by measuring absorbance at 280 nm using their calculated extinction coefficients with ExPASy ProtParam Tool.^33 All other buffers and salts were purchased from Fisher Scientific unless otherwise specified.
The kcat and KM values of selective KIVD mutants were measured for the substrates: C3, C5, isoC5, and C8. […] Activity was measured at 0.005 mM to 10 mM substrates. […] Absorbance readings were taken every 1-minute at OD340 at 21° C. for 60 minutes using the Synergy H1. Kinetic parameters (kcat and KM) were determined by fitting initial velocity versus substrate concentration data to the Michaelis-Menten equation.

[2] = test system: synthetic recursive+1 pathway; assay: In vivo alcohol production of the synthetic recursive+1 pathway (fermentation, GC-FID); type: cell-based, E. coli; details: for 1-Butanol production / 1-Ethanol production / 1-Heptanol production / 1-Hexanol production / 1-Octanol production / 1-Pentanol production / 1-Propanol production: forty hours, microaerobic, defined media
Protocol: The measured specificity and activity for each enzyme was used to select two candidates for further characterization of their ability to modulate alcohol production in vivo. The two enzymes with the highest activity and specificity (FIG. 4), KIVD_VLV and GEO 175, were tested for their ability to reprogram the synthetic recursive+1 pathway to produce long-chain alcohol products in vivo. The alcohol-producing biochemical pathway was adapted from a previous study used to synthesize alcohols of various lengths.^3,4 Starting from glucose, the aforementioned+1 pathway, involving LeuABCD, recursively elongates 2-ketoacids, starting with 2-ketobutyrate, into longer chained 2-ketoacids. These 2-ketoacids are then converted to aldehydes by ketoacid decarboxylases (native KIVD, KIVD_VLV, and GEO 175) and subsequently to alcohols by an alcohol dehydrogenase. Carbon flux through this alcohol synthesizing biochemical pathway is enhanced by overexpressing thrABC, ilvA, LeuABCD, and ADH6 on inducible plasmids transformed into E. coli.^3 The effects of overexpression were furthermore supported and maintained by knocking out the threonine exporter enzyme RhtA and the primary DNA recombination degradation enzyme RecA. The enzyme AdhE was also knocked out, which helps raise long chain alcohol production by eliminating a competing pathway where acetyl-CoA is directly converted to ethanol.^19
Genes were removed from the ATCC 98082 ΔrhtA strain genome using P1 transduction from the Keio collection as previously.^32 The aldehyde-alcohol dehydrogenase gene (adhE) was knocked out to eliminate ethanol production from acetyl-coA. In all strains, recA was knocked out to prevent recombination between the genome and plasmids, thereby stabilizing the transformants. Primers used to target recA for knockout were designed based on the Keio collection (Genobase, ecoli.aist-nara.ac.jp) and ordered from Integrated DNA Technologies.
For n-alcohol production, strains of ST128 were transformed with pZS_thrO, pZAlac_ilvABSleuA, and pZE_LeuA*BCDK*A6 containing various kivd mutations. Fermentation conditions were adapted from those in previous works,^3,4 with the following changes: 20 mL of medium was used, with 100 μg/mL ampicillin, […] kanamycin, and 100 μg/mL spectinomycin added. Cells were grown to an optical density at 600 nm of ˜0.6, followed by induction with 0.1 mM isopropyl-b-D-thiogalactoside (IPTG). After fermentation, cells were centrifuged for 15 minutes at 4000×g and 4° C. The supernatant was split into two fractions for analysis, 5 mL for short chain alcohols (ethanol, 1-propanol, and 1-butanol), and 15 mL for long chain alcohols (1-pentanol, 1-hexanol, 1-heptanol, and 1-octanol). Long chain alcohols were extracted from the 15 mL fraction by 3 mL n-hexane prior to analysis. GC-FID analysis was performed as previously described.^4

Molecule	1-Butanol production [2]	1-Ethanol production [2]	1-Heptanol production [2]	1-Hexanol production [2]	1-Octanol production [2]	1-Pentanol production [2]	1-Propanol production [2]	also measured
GEO175: native enzyme from Streptomyces sp. C, predicted protein with no known function, 2-ketoacid decarboxylase, SEQ ID NO:2 (protein, Streptomyces sp. C) MRTVRESALDVLRARGMTTVFGNPGSTELPMLKQFPDDFRYVLGLQEAVVVGMADGFALASGTTGLVNLHTGPGTGNAMGAILNARANRTPMVVTAGQQVRAMLTMEALLTNPQSTLLPQPAVKWAYEPPRAADVAPALARAVQVAETPPQGPVFVSLPMDDFDVVLGEDEDRAAQRAAARTVTHAAAPSAEVVRRLAARLSGARSAVLVAGNDVDASGAWDAVVELAERTGLPVWSAPTEGRVAFPKSHPQYRGMLPPAIAPLSRCLEGHDLVLVIGAPVFCYYPYVPGAHLPENTELVHLTRDADEAARAPVGDAVVADLALTVRALLAELPAREAAAPAARTARAESTAEVDGVLTPLAAMTAIAQGAPANTLWVNESPSNLGQFHDATRIDTPGSFLFTAGGGLGFGLAAAVGAQLGAPDRPVVCVIGDGSTHYAVQALWTAAAYKVPVTFVVLSNQRYAILQWFAQVEGAQGAPGLDIPGLDIAAVATGYGVRAHRATGFGELSKLVRESALQQDGPVLIDVPVTTELPTL	19 mg/L	no ethanol or propanol production is observed	274 mg/L	160 mg/L	10 mg/L	88 mg/L	no ethanol or propanol production is observed	catalytic efficiency on C8 lower than native KIVD [1]: 2 fold; drop of overall alcohol production from that obtained with KIVD [2]: ~10 fold; heptanol share of alcohol production [2]: 50%; hexanol share of alcohol production [2]: 29%; major alcohol product [2]: heptanol (C7) and 1-heptanol; pentanol share of alcohol production [2]: 16%; 1-Butanol production ([2]; listed as GEO 175): 19 ± 2 mg/L; 1-Heptanol production ([2]; listed as GEO 175): 274 ± 19 mg/L; 1-Hexanol production ([2]; listed as GEO 175): 160 ± 18 mg/L; 1-Octanol production ([2]; listed as GEO 175): 10 ± 1 mg/L; 1-Pentanol production ([2]; listed as GEO 175): 88 ± 12 mg/L; long chain (≥C5) alcohols produced ([2]; sum of long chain alcohols): 522 mg/L
Native KIVD: ketoisovalerate decarboxylase used in the current synthetic recursive+1 pathway, SEQ ID NO:1 (protein, listed as Lactococcus lactis) MYTVGDYLLDRLHELGIEEIFGVPGDYNLQFLDQIISRKDMKWVGNANELNASYMADGYARTKKAAAFLTTFGVGELSAVNGLAGSYAENLPVVEIVGSPTSKVQNEGKFVHHTLADGDFKHFMKMHEPVTAARTLLTAENATVEIDRVLSALLKERKPVYINLPVDVAAAKAEKPSLPLKKENSTSNTSDQEILNKIQESLKNAKKPIVITGHEIISFGLEKTVSQFISKTKLPITTLNFGKSSVDEALPSFLGIYNGKLSEPNLKEFVESADFILMLGVKLTDSSTGAFTHHLNENKMISLNIDEGKIFNESIQNFDFESLISSLLDLSEIEYKGKYIDKKQEDFVPSNALLSQDRLWQAVENLTQSNETIVAEQGTSFFGASSIFLKPKSHFIGQPLWGSIGYTFPAALGSQIADKESRHLLFIGDGSLQLTVQELGLAIREKINPICFIINNDGYTVEREIHGPNQSYNDIPMWNYSKLPESFGATEERVVSKIVRTENEFVSVMKEAQADPNRMYWIELILAKEDAPKVLKKMGKLFAEQNKS	1964 ± 24 mg/L	652 ± 32 mg/L	20 ± 3 mg/L	75 ± 6 mg/L	not observed	594 ± 20 mg/L	693 ± 4 mg/L	overall alcohol production [2]: 4.0 g/L; short alcohols (C2-C4) share of total alcohol production [2]: 82%
